These are literature values, as cited in PMC1079850.

One may read the Kd as the constant that tells how readily two partners part at equilibrium.

In this data set the target is Tsr (Escherichia coli) (UniProt P02942). Nature of the data set: given as Ka.
Tsr (Escherichia coli), sequence (P02942 whole entry): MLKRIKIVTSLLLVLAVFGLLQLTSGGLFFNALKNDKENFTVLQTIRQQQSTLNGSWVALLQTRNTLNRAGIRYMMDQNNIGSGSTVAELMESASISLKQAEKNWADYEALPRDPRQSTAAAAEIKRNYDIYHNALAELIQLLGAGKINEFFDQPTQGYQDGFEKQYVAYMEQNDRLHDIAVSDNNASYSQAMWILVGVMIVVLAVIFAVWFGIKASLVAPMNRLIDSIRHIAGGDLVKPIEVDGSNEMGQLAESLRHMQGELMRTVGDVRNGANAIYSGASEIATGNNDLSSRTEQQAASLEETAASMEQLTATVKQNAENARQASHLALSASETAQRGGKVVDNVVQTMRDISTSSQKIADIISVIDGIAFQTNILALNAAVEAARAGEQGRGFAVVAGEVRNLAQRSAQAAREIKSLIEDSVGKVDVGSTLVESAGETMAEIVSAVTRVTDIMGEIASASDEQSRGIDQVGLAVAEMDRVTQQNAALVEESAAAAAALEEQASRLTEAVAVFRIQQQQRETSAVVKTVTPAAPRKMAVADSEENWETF

CheR, sequence (P07364 whole entry): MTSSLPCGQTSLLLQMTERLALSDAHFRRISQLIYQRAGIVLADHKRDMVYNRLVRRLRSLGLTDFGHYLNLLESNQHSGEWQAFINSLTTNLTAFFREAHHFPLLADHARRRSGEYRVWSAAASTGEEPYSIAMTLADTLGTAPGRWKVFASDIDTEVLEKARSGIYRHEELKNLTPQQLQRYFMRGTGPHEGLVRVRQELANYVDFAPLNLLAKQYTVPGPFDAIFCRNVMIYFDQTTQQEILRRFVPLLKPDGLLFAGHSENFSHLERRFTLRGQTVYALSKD

Regarding CheR (from UniProt P07364), the Kd was 2500 nM.
